From patent US11135246B2, “Peptides and combination of peptides for use in immunotherapy against leukemias and other cancers” (Immatics Biotechnologies GmbH, priority 2017, dated 2021) come the findings set out here.

This experiment addresses HLA-B*44:02 (Homo sapiens, UniProt P01889, A223V/A65T/A93T/A95T/D201E/D98Y/E176V/E187L/E204Q/E69K/G107R/H137Y/K202T/L105A/L119I/N104T/N87E/Q56L/Q94N/R106L/R155S/R180D/S101N/S121R/S35A/S48T/T118I/V36M/W191S/Y140D/Y91S). In words: MHC binding assay, UV-ligand exchange with β2m ELISA, HLA-B*44:02. The conditions noted are these: binding to HLA-B*44:02, UV-ligand exchange. From the text: Candidate peptides for T cell based therapies according to the present invention were further tested for their MHC binding capacity (affinity). The individual peptide-MHC complexes were produced by UV-ligand exchange, where a UV-sensitive peptide is cleaved upon UV-irradiation, and exchanged with the peptide of interest as analyzed. Only peptide candidates that can effectively bind and stabilize the peptide-receptive MHC molecules prevent dissociation of the MHC complexes. To determine the yield of the exchange reaction, an ELISA was performed based on the detection of the light chain (β2m) of stabilized MHC complexes. The assay was performed as generally described in Rodenko et al. (Rodenko et al., 2006).
96 well MAXISorp plates (NUNC) were coated over night with 2 ug/ml streptavidin in PBS at room temperature, washed 4× and blocked for 1 h at 37° C. in 2% BSA containing blocking buffer. Refolded HLA-A*02:01/MLA-001 monomers served as standards, covering the range of 15-500 ng/ml. Peptide-MHC monomers of the UV-exchange reaction were diluted 100-fold in blocking buffer. Samples were incubated for 1 h at 37° C., washed four times, incubated with 2 ug/ml HRP conjugated anti-β2m for 1 h at 37° C., washed again and detected with TMB solution that is stopped with […]. Absorption was measured at 450 nm. Candidate peptides that show a high exchange yield (preferably higher than 50%, most preferred higher than 75%) are generally preferred for a generation and production of antibodies or fragments thereof, and/or T cell receptors or fragments thereof, as they show sufficient avidity to the MHC molecules and prevent dissociation of the MHC complexes.
On the technique in general: An ELISA detects its analyte on a solid surface through an enzyme-linked reagent.
Turning to “123 (EENPGKFLF; listed as Homo sapiens) [compound 123]”, the “Peptide exchange (MHC class I binding score, peptide exchange yield)” value (“Peptide exchange” for short) is ““+++” (>50 = +++)”.

As for “157 (VEIAEAIQL; listed as Homo sapiens) [compound 157]”, the “Peptide exchange” value is ““+++” (>50 = +++)”.

For “132 (GELPAVRDL; listed as Homo sapiens) [compound 132]”, the “Peptide exchange” value is on record as ““++” (>20% = ++)”.

Consider “156 (FEVESLFQKY; listed as Homo sapiens) [compound 156]”, for which the “Peptide exchange” value was ““+++” (>50 = +++)”.

Consider “177 (QENMQIQSF; listed as Homo sapiens) [compound 177]”, for which the “Peptide exchange” value is on record as ““+++” (>50 = +++)”.

Turning to “166 (NEVLASKY; listed as Homo sapiens) [compound 166]”, the “Peptide exchange” value is given as ““+” (>10% = +)”.

For “137 (GELGGSVTI; listed as Homo sapiens) [compound 137]”, the “Peptide exchange” value is ““+++” (>50 = +++)”.

“184 (RMPPFTQAF; listed as Homo sapiens) [compound 184]”: the “Peptide exchange” value is on record as ““++” (>20% = ++)”.

For “174 (TDKSFPNAY; listed as Homo sapiens) [compound 174]”, the “Peptide exchange” value is ““+” (>10% = +)”.

On to “269 (KELEDLNKW; listed as Homo sapiens) [compound 269]”, for which the “Peptide exchange” value is on record as ““+++” (>50 = +++)”.

Take “130 (EEEHGKGREY; listed as Homo sapiens) [compound 130]”: the “Peptide exchange” value is listed as ““++” (>20% = ++)”.

Regarding “129 (GEGAYGKVF; listed as Homo sapiens) [compound 129]”, the “Peptide exchange” value is ““++++” (>75% = ++++)”.

On to “260 (AEIGEGAYGKVF; listed as Homo sapiens) [compound 260]”, for which the “Peptide exchange” value is listed as ““+++” (>50 = +++)”.

Turning to “169 (EENGEVKEL; listed as Homo sapiens) [compound 169]”, the “Peptide exchange” value is reported as ““++” (>20% = ++)”.

For “272 (KEFELRSSW; listed as Homo sapiens) [compound 272]”, the “Peptide exchange” value is on record as ““+++” (>50 = +++)”.

Regarding “141 (REYEYDLKWEF; listed as Homo sapiens) [compound 141]”, the “Peptide exchange” value is ““+++” (>50 = +++)”.

On to “186 (NEQKIVRF; listed as Homo sapiens) [compound 186]”, for which the “Peptide exchange” value is on record as ““+” (>10% = +)”.

With “154 (AEPGPVITW; listed as Homo sapiens) [compound 154]”, the “Peptide exchange” value was ““+++” (>50 = +++)”.

On to “159 (GELLGRQSF; listed as Homo sapiens) [compound 159]”, for which the “Peptide exchange” value is ““+++” (>50 = +++)”.

Take “122 (KELPGVKKY; listed as Homo sapiens) [compound 122]”: the “Peptide exchange” value is on record as ““++” (>20% = ++)”.

Consider “136 (AEYKGRVTL; listed as Homo sapiens) [compound 136]”, for which the “Peptide exchange” value is recorded as ““++++” (>75% = ++++)”.

In the case of “170 (SENEQRRMF; listed as Homo sapiens) [compound 170]”, the “Peptide exchange” value is on record as ““+++” (>50 = +++)”.

As for “143 (YEYDLKWEF; listed as Homo sapiens) [compound 143]”, the “Peptide exchange” value is on record as ““+++” (>50 = +++)”.

As for “259 (EENTLVQNY; listed as Homo sapiens) [compound 259]”, the “Peptide exchange” value is reported as ““++” (>20% = ++)”.

For the substance “152 (AELLAKELY; listed as Homo sapiens) [compound 152]”, the “Peptide exchange” value is on record as ““++” (>20% = ++)”.

“139 (RENQVLGSGW; listed as Homo sapiens) [compound 139]”: the “Peptide exchange” value was ““+++” (>50 = +++)”.

“258 (EELFRDGVNW; listed as Homo sapiens) [compound 258]”: the “Peptide exchange” value is listed as ““+++” (>50 = +++)”.

In the case of “167 (KEIGAAVQAL; listed as Homo sapiens) [compound 167]”, the “Peptide exchange” value was ““+++” (>50 = +++)”.

On to “276 (EEEGNLLRSW; listed as Homo sapiens) [compound 276]”, for which the “Peptide exchange” value is recorded as ““+++” (>50 = +++)”.

Turning to “133 (AEHNFVAKA; listed as Homo sapiens) [compound 133]”, the “Peptide exchange” value is ““+++” (>50 = +++)”.

Regarding “163 (EEWMGLLEY; listed as Homo sapiens) [compound 163]”, the “Peptide exchange” value was ““++++” (>75% = ++++)”.

On to “135 (NEIKVYITF; listed as Homo sapiens) [compound 135]”, for which the “Peptide exchange” value is listed as ““+++” (>50 = +++)”.

Take “180 (EEPAFNVSY; listed as Homo sapiens) [compound 180]”: the “Peptide exchange” value is given as ““++” (>20% = ++)”.

Consider “142 (TEIFKEHNF; listed as Homo sapiens) [compound 142]”, for which the “Peptide exchange” value is listed as ““++” (>20% = ++)”.

For “275 (TENPLTKLL; listed as Homo sapiens) [compound 275]”, the “Peptide exchange” value was ““++++” (>75% = ++++)”.

Consider “165 (VELDLQRSV; listed as Homo sapiens) [compound 165]”, for which the “Peptide exchange” value is given as ““++” (>20% = ++)”.

In the case of “150 (EEVTDRSQL; listed as Homo sapiens) [compound 150]”, the “Peptide exchange” value is reported as ““++” (>20% = ++)”.

Turning to “124 (SESLPKEAF; listed as Homo sapiens) [compound 124]”, the “Peptide exchange” value was ““++” (>20% = ++)”.

Consider “149 (SEKETVAYF; listed as Homo sapiens) [compound 149]”, for which the “Peptide exchange” value is ““+++” (>50 = +++)”.

Take “164 (SEYSHLTRV; listed as Homo sapiens) [compound 164]”: the “Peptide exchange” value is given as ““++” (>20% = ++)”.

On to “270 (AESEDLAVHL; listed as Homo sapiens) [compound 270]”, for which the “Peptide exchange” value is listed as ““++” (>20% = ++)”.

For “145 (AEPLVGQRW; listed as Homo sapiens) [compound 145]”, the “Peptide exchange” value was ““+++” (>50 = +++)”.

On to “277 (EEGNLLRSW; listed as Homo sapiens) [compound 277]”, for which the “Peptide exchange” value was ““+++” (>50 = +++)”.

As for “171 (SEDLAVHLY; listed as Homo sapiens) [compound 171]”, the “Peptide exchange” value is on record as ““++” (>20% = ++)”.

As for “266 (VDASIFKAW; listed as Homo sapiens) [compound 266]”, the “Peptide exchange” value is ““++” (>20% = ++)”.

“175 (HEIDGKALFL; listed as Homo sapiens) [compound 175]”: the “Peptide exchange” value was ““++” (>20% = ++)”.

As for “265 (QEVDASIFKAW; listed as Homo sapiens) [compound 265]”, the “Peptide exchange” value is ““+++” (>50 = +++)”.

On to “271 (AESEDLAVHLY; listed as Homo sapiens) [compound 271]”, for which the “Peptide exchange” value is ““++” (>20% = ++)”.

Take “155 (NEFPVIVRL; listed as Homo sapiens) [compound 155]”: the “Peptide exchange” value is listed as ““+++” (>50 = +++)”.

“261 (NEIEHIPVW; listed as Homo sapiens) [compound 261]”: the “Peptide exchange” value was ““+++” (>50 = +++)”.

Turning to “273 (AEIEIVKEEF; listed as Homo sapiens) [compound 273]”, the “Peptide exchange” value is ““++” (>20% = ++)”.

As to “176 (AENAVSNLSF; listed as Homo sapiens) [compound 176]”, the “Peptide exchange” value was ““++” (>20% = ++)”.

Regarding “126 (EENKPGIVY; listed as Homo sapiens) [compound 126]”, the “Peptide exchange” value was ““++” (>20% = ++)”.

As to “125 (SESTFDRTF; listed as Homo sapiens) [compound 125]”, the “Peptide exchange” value is listed as ““+++” (>50 = +++)”.

Regarding “162 (DEAQARAAF; listed as Homo sapiens) [compound 162]”, the “Peptide exchange” value was ““++” (>20% = ++)”.

With “127 (TEYPVFVY; listed as Homo sapiens) [compound 127]”, the “Peptide exchange” value is ““+” (>10% = +)”.
